Experimental data from patent publication US20040053370A1.
Where “and” joins values, the source holds several entries; their conditions need not be identical. Equal values may be shown once.

Biological target: GLP-1 receptor
Assay: cell-based or functional assay

Substance	GLP-1 Receptor Activation (fold of GLP-1(7-37)OH)	In Vitro Activity (% of Val^8-GLP-1) (% of Val^8-GLP-1)
Val^8-Trp^16-Glu^22-Val^25-GLP-1(7-37)OH (peptide)	2.07	
Val^8-Glu^22-Val^25-Ile^33-GLP-1(7-37)OH (peptide)	2.3 and 2.73 and 3.15	
Gly^8-GLP-1-IgG1 (from UniProt P01857 99-330) (Fc fusion)		3.3
Val^8-Trp^16-Glu^22-Ile^33-GLP-1(7-37)OH (peptide)	1.93	
Val^8-Lys^33-Asn^34-GLP-1(7-37)OH (peptide)	0.09	
